Experimental data taken from PMC6660512.

How the values were obtained:
[1] = target: Nogo-A Δ20 (Rattus norvegicus) (UniProt Q9JK11); settings: cited from earlier work
His-tagged Nogo-A-Δ20 = assay: MST; Nanotemper Monolith NT.115, as described in ref. 29; SPARC and Nogo-A-Δ20 (Suppl. Figure 4m)

Sequence of UniProt Q9JK11 (Q9JK11 544-725, stated change not applied): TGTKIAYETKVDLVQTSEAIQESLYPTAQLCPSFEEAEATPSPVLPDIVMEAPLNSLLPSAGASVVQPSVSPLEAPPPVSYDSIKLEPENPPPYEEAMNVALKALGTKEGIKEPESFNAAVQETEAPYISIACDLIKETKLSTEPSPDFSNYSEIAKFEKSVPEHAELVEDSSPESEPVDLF

| Kd (His-tagged Nogo-A-Δ20) [nM] | Molecule | Kd [1] [nM] |
| --- | --- | --- |
|  | S1PR2 (from UniProt O95136) | 280 |
| 150 | SPARC (construct used for microscale thermophoresis not stated) (natural protein) APQQEALPDETEVVEETVAEVTEVSVGANPVQVEVGEFDDGAEETEEEVVAENPCQNHHCKHGKVCELDENNTPMCVCQDPTSCPAPIGEFEKVCSNDNKTFDSSCHFFATKCTLEGTKKGHKLHLDYIGPCKYIPPCLDSELTEFPLRMRDWLKNVLVTLYERDEDNNLLTEKQKLRVKKIHENEKRLEAGDHPVELLARDFEKNYNMYIFPVHWQFGQLDQHPIDGYLSHTELAPLRAPLIPMEHCTTRFFETCDLDNDKYIALDEWAGCFGIKQKDIDKDLVI |  |
